Measurements reported in US20220396617A1.
pEC50, pKd: −log10 of the molar value.

What was measured:
[1] = target: human TIGIT (ECD)-his (human) (UniProt Q495A1); assay: ELISA, coated human TIGIT (ECD)-his (table head says FACS)
TIGIT (ECD)-hFc (human) [2] = target: TIGIT (ECD)-hFc (human) (UniProt Q495A1); assay: FACS blocking assay: antibody preincubated with TIGIT (ECD)-hFc, binding to A549/human PVR cells
[3] = target: human TIGIT (ECD)-his (human) (UniProt Q495A1); assay: SPR (BIAcore 8K), human TIGIT (ECD)-his on CM5 chip, antibody injected
TIGIT (ECD)-hFc (human) [4] = target: TIGIT (ECD)-hFc (human) (UniProt Q495A1); assay: FACS blocking assay (protocol of Example 7): serially diluted antibody pre-incubated with TIGIT (ECD)-hFc, then binding of TIGIT (ECD)-hFc to A549/human PVR cells measured; blocked ligand: human PVR
TIGIT (ECD)-hFc (human) [5] = target: TIGIT (ECD)-hFc (human) (UniProt Q495A1); assay: FACS blocking assay (protocol of Example 7): serially diluted antibody pre-incubated with TIGIT (ECD)-hFc, then binding of TIGIT (ECD)-hFc to A549/human PVR cells measured; blocked ligand: human PVR [A]
TIGIT (ECD)-hFc (human) [6] = target: TIGIT (ECD)-hFc (human) (UniProt Q495A1); assay: FACS blocking assay (protocol of Example 7): serially diluted antibody pre-incubated with TIGIT (ECD)-hFc, then binding of TIGIT (ECD)-hFc to A549/human PVR cells measured; blocked ligand: human PVR [B]

Chain of TIGIT (ECD)-hFc (human) (Q495A1 22-141): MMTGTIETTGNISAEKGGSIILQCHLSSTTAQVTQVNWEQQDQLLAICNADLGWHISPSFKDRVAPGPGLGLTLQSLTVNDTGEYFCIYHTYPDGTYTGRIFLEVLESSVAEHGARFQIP
Chain of human TIGIT (ECD)-his (human) (Q495A1 22-141): as above

In the case of Tiragolumab (antibody), the pEC50 [1] was 9.80, the pEC50 (TIGIT (ECD)-hFc (human) [2]) was 7.38 and the pKd [3] was 11.83. For the same substance, the IC50 (read off the curve) (TIGIT (ECD)-hFc (human) [4]) was 3000 ng/mL, the IC50 (read off the curve) (TIGIT (ECD)-hFc (human) [5]) was 4000 ng/mL and the IC50 (read off the curve) (TIGIT (ECD)-hFc (human) [6]) was 5000 ng/mL.
